Measurements taken from the supplement of paper PMC9112550, “Optimization of the antimicrobial peptide Bac7 by deep mutational scanning” (BMC Biology, 2022).

Test system: Escherichia coli TOP10
Test: shrunken log2 fold change of peptide-encoding DNA abundance (4.5 h post-induction vs induction); higher = less antimicrobial activity (less host growth inhibition)
Conditions: time post-induction: 4.5 h; library: site-saturation at positions 5, 18, 19, 20
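Also: peptides expressed intracellularly from a pBAD plasmid library in pooled LB shake-flask culture, induced with 0.3% L-arabinose, DNA abundance read by NGS, three biological replicates, DESeq2 with apeglm shrinkage.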

Sequence | shrunken log2 fold change
RRIRWRPPRLPRPRPRPEPMPRP | 0.38
RRIRGRPPRLPRPRPRPWKHPRP | -0.161
RRIRNRPPRLPRPRPRPNALPRP | -0.134
RRIRMRPPRLPRPRPRPCIVPRP | -0.0122
RRIRLRPPRLPRPRPRPCAEPRP | 0.395
RRIRMRPPRLPRPRPRPNVDPRP | 0.0854
RRIRIRPPRLPRPRPRPSFFPRP | -0.654
RRIRFRPPRLPRPRPRPMMQPRP | -0.297
RRIRRRPPRLPRPRPRPGHVPRP | -0.00681
RRIRKRPPRLPRPRPRPYNIPRP | -0.133
RRIRHRPPRLPRPRPRPLFQPRP | -0.108
RRIRIRPPRLPRPRPRPEYLPRP | 0.0178
RRIRQRPPRLPRPRPRPHDLPRP | -0.046
RRIRWRPPRLPRPRPRPRKIPRP | 0.491
RRIRERPPRLPRPRPRPLYHPRP | -0.419
RRIRGRPPRLPRPRPRPFELPRP | 0.0951
RRIRMRPPRLPRPRPRPVFMPRP | -0.202
RRIRTRPPRLPRPRPRPHKWPRP | -0.029
RRIRQRPPRLPRPRPRPIGFPRP | -0.0702
RRIRQRPPRLPRPRPRPTVQPRP | 0.226
RRIRCRPPRLPRPRPRPIMKPRP | -0.649
RRIRVRPPRLPRPRPRPMGRPRP | -0.0203
RRIRSRPPRLPRPRPRPSLHPRP | -0.385
RRIRKRPPRLPRPRPRPKYYPRP | -0.0776
RRIRDRPPRLPRPRPRPRMHPRP | -0.268

Sequence | shrunken log2 fold change
RRIRSRPPRLPRPRPRPFHEPRP | -0.263
RRIRIRPPRLPRPRPRPDIVPRP | -0.906
RRIRPRPPRLPRPRPRPNFTPRP | 0.0917
RRIRERPPRLPRPRPRPFDYPRP | 0.155
RRIRCRPPRLPRPRPRPKWKPRP | 0.329
RRIRARPPRLPRPRPRPESKPRP | 0.015
RRIRYRPPRLPRPRPRPRVDPRP | -0.531
RRIRGRPPRLPRPRPRPYGIPRP | -0.165
RRIRERPPRLPRPRPRPMNFPRP | -0.192
RRIRPRPPRLPRPRPRPGWVPRP | 0.405
RRIRERPPRLPRPRPRPRGEPRP | -0.023
RRIRGRPPRLPRPRPRPICTPRP | 1.08
RRIRYRPPRLPRPRPRPASAPRP | 0.0949
RRIRSRPPRLPRPRPRPQYDPRP | -0.352
RRIRRRPPRLPRPRPRPECIPRP | 0.282
RRIRMRPPRLPRPRPRPVFYPRP | -0.0165
RRIRVRPPRLPRPRPRPEVRPRP | 0.0429
RRIRYRPPRLPRPRPRPKARPRP | 0.0182
RRIRGRPPRLPRPRPRPCTPPRP | 0.337
RRIRVRPPRLPRPRPRPHGCPRP | -0.041
RRIRSRPPRLPRPRPRPAQCPRP | 0.0899
RRIRVRPPRLPRPRPRPMNIPRP | -0.604
RRIRPRPPRLPRPRPRPGQWPRP | 0.236
RRIRLRPPRLPRPRPRPYQRPRP | -0.393
RRIRGRPPRLPRPRPRPQQHPRP | 0.232

Sequence | shrunken log2 fold change
RRIRYRPPRLPRPRPRPNGDPRP | -0.112
RRIRKRPPRLPRPRPRPMYRPRP | 0.0629
RRIRARPPRLPRPRPRPMHRPRP | -0.137
RRIRCRPPRLPRPRPRPESQPRP | -0.0239
RRIRFRPPRLPRPRPRPQLYPRP | -0.588
RRIRFRPPRLPRPRPRPDGSPRP | -0.0167
RRIRWRPPRLPRPRPRPPWRPRP | 0.696
RRIRNRPPRLPRPRPRPALSPRP | 0.0962
RRIRQRPPRLPRPRPRPHRAPRP | -0.137
RRIRKRPPRLPRPRPRPRCWPRP | 0.931
RRIRDRPPRLPRPRPRPTENPRP | 0.277
RRIRCRPPRLPRPRPRPIYFPRP | -0.131
RRIRGRPPRLPRPRPRPIRPPRP | 0.209
RRIRLRPPRLPRPRPRPQSFPRP | -0.0139
RRIRGRPPRLPRPRPRPFDLPRP | -0.24
RRIRDRPPRLPRPRPRPKYRPRP | -0.0164
RRIRFRPPRLPRPRPRPVDYPRP | -0.031
RRIRTRPPRLPRPRPRPVPLPRP | -0.145
RRIRSRPPRLPRPRPRPPLRPRP | 0.249
RRIRLRPPRLPRPRPRPHQKPRP | -0.0932
RRIRSRPPRLPRPRPRPMRFPRP | 0.378
RRIRWRPPRLPRPRPRPKQPPRP | 0.334
RRIRLRPPRLPRPRPRPCAWPRP | -0.005
RRIRYRPPRLPRPRPRPPQYPRP | -0.795
RRIRDRPPRLPRPRPRPNNFPRP | -0.418

Sequence | shrunken log2 fold change
RRIRTRPPRLPRPRPRPNSGPRP | 0.00712
RRIRNRPPRLPRPRPRPAVAPRP | 0.339
RRIRYRPPRLPRPRPRPHDFPRP | -0.167
RRIRGRPPRLPRPRPRPTPIPRP | 0.79
RRIRGRPPRLPRPRPRPFLKPRP | 0.186
RRIRDRPPRLPRPRPRPESHPRP | 0.0331
RRIRIRPPRLPRPRPRPFNHPRP | -0.0691
RRIRRRPPRLPRPRPRPFNHPRP | -0.275
RRIRDRPPRLPRPRPRPEVQPRP | 0.988
RRIRKRPPRLPRPRPRPQNLPRP | 0.0263
RRIRFRPPRLPRPRPRPYDTPRP | -0.106
RRIRTRPPRLPRPRPRPYRKPRP | -0.0329
RRIRWRPPRLPRPRPRPHLWPRP | 0.191
RRIRFRPPRLPRPRPRPIGAPRP | 0.064
RRIRKRPPRLPRPRPRPAVGPRP | 0.472
RRIRKRPPRLPRPRPRPPPIPRP | 0.748
RRIRDRPPRLPRPRPRPKILPRP | 0.042
RRIRKRPPRLPRPRPRPIEDPRP | -0.0345
RRIRVRPPRLPRPRPRPFWNPRP | -0.00518
RRIRWRPPRLPRPRPRPCYMPRP | -0.282
RRIRLRPPRLPRPRPRPPLWPRP | 0.447
RRIRVRPPRLPRPRPRPYTWPRP | -0.364
RRIRKRPPRLPRPRPRPCVQPRP | -0.038
RRIRYRPPRLPRPRPRPRVTPRP | -0.286
RRIRHRPPRLPRPRPRPRYFPRP | -0.439

Sequence | shrunken log2 fold change
RRIRDRPPRLPRPRPRPNMSPRP | -0.0444
RRIRYRPPRLPRPRPRPPSDPRP | -0.185
RRIRDRPPRLPRPRPRPQFIPRP | -0.935
RRIRERPPRLPRPRPRPSKPPRP | 0.0303
RRIRKRPPRLPRPRPRPLTLPRP | 0.0103
RRIRIRPPRLPRPRPRPSHMPRP | -0.425
RRIRWRPPRLPRPRPRPQEDPRP | -0.0221
RRIRCRPPRLPRPRPRPGLTPRP | 0.108
RRIRKRPPRLPRPRPRPSIIPRP | -0.221
RRIRNRPPRLPRPRPRPNEHPRP | -0.071
RRIRKRPPRLPRPRPRPEWNPRP | 0.599
RRIRTRPPRLPRPRPRPGDTPRP | -0.0833
RRIRARPPRLPRPRPRPWHMPRP | -0.361
RRIRARPPRLPRPRPRPSDTPRP | -0.339
RRIRIRPPRLPRPRPRPYPSPRP | -0.00978
RRIRPRPPRLPRPRPRPSAYPRP | -0.386
RRIRVRPPRLPRPRPRPIENPRP | -0.229
RRIRHRPPRLPRPRPRPMCIPRP | -0.162
RRIRPRPPRLPRPRPRPKSEPRP | 0.197
RRIRDRPPRLPRPRPRPKHDPRP | -0.16
RRIRFRPPRLPRPRPRPNWIPRP | -0.426
RRIRIRPPRLPRPRPRPHIEPRP | -0.0878
RRIRKRPPRLPRPRPRPAKLPRP | 0.446
RRIRRRPPRLPRPRPRPYGNPRP | -0.219
RRIRGRPPRLPRPRPRPNFKPRP | 0.142
